Assay results from paper PMC3035456.
Read-outs that look alike come from different tables or passages of the source.

Legend:
HuR123 = HuR123 (UniProt Q15717 1-306); experiment: SPR
HuR12 = HuR12 (UniProt Q15717 18-184); experiment: SPR
TIAR123 = target: T1, TIAR123 (UniProt Q01085 1-283); experiment: SPR
T1 sequence: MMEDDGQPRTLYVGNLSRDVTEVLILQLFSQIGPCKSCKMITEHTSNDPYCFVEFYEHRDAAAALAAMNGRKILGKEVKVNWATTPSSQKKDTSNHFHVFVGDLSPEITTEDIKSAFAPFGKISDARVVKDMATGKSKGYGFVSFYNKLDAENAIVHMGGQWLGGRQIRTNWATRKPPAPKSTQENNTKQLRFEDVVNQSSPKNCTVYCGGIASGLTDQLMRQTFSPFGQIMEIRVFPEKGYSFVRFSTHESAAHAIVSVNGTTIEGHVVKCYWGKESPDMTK

TIAR12 [1] = target: T2, TIAR12 (UniProt Q01085 1-181); experiment: SPR
T2 sequence: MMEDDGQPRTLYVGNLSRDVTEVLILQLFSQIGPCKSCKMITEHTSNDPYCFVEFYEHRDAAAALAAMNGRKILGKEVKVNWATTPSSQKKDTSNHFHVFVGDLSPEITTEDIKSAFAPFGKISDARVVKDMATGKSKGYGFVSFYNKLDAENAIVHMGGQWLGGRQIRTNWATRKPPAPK

TIAR12 [2] = target: T2, TIAR12; experiment: SPR; remark: listed apart in the source
TIAR12 [3] = target: T2, TIAR12; experiment: size exclusion chromatography

HuR12, sequence (Q15717 18-184): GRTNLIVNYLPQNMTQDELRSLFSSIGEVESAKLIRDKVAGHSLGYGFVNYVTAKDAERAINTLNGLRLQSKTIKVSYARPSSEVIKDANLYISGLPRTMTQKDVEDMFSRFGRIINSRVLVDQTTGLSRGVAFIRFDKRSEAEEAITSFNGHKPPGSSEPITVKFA
HuR123, sequence (Q15717 1-306): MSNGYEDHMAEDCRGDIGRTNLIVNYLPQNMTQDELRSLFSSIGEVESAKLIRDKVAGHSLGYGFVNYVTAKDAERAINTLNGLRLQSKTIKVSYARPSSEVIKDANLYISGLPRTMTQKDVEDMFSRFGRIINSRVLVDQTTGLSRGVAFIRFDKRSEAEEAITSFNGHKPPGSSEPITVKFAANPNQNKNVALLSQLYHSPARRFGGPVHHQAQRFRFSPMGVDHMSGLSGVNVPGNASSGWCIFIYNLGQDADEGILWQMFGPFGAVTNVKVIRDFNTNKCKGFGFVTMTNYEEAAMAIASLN

GGGGGGUUUUUUUUUUUUUUUUUGGGGG (ssRNA) [U-rich RNA 28-mer] gave a Kd (HuR123) of 0.05 ± 0.001 nM.

Binder UUUUUUUU (ssRNA) [U-rich RNA 8-mer] has a Kd (HuR12) of 4700 ± 116 nM.

GGGGGGUAUUUAUUAUUUAUUUAGGGGG (ssRNA) [AU-rich RNA 28-mer (TNF-alpha ARE)] gave a Kd (TIAR123) of 14.1 ± 0.22 nM, a Kd (HuR12) of 506 ± 13.1 nM and a Kd (HuR123) of 0.2 ± 0.007 nM. The Kd (TIAR12 [1]) was 42.5 ± 0.63 nM.

For TTTTTTTTTTTTTTTTTTTT (ssDNA) [T-rich DNA 20-mer], the Kd (HuR12) was 2640 ± 82.3 nM and the Kd (TIAR12 [2]) was 3.81 ± 0.74 nM.

With UUUUUUUUUUUUUUUUUUUU (ssDNA, all deoxyuridine (2'-deoxy)) [U-rich DNA 20-mer] the Kd (HuR12) was 20600 ± 1570 nM and the Kd (TIAR12 [1]) was 21.7 ± 0.38 nM.

UUUUUUUUUUUUU (ssRNA) [U-rich RNA 13-mer] gave a Kd (HuR12) of 195 ± 6.3 nM.

UUUUUUUUUUUUUUUUU (ssRNA) [U-rich RNA 17-mer] gave a Kd (HuR12) of 40 ± 24 nM.

UUUUUUUUUUUUU (ssRNA) [U-rich RNA 13-mer (solution)]: binds (TIAR12 [3]).
